± gives the standard deviation.
Test: collision cross section of modified peptide (TIMS, N2, iRT-aligned); higher = larger / more extended gas-phase ion
In short: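 Collision cross section values rest on the Mason-Schamp equation applied to calibrated, run-aligned mobility data from synthetic peptides. Mobility (1/K0) was calibrated with three reference ions and aligned per run to the median iRT peptide deviation, and 1–3 technical replicates of the most abundant feature per charge state were averaged. Data came from a timsTOF Pro/HT in dda-PASEF mode (nitrogen, ~2.4 mbar) after a 120-min nanoflow C18 gradient at 60 °C.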

[1] = charge state: 2, modification: Phospho (Y)
[2] = charge state: 2, modification: Nitro (Y)
[3] = charge state: 2, modification: Acetyl (K)
[4] = charge state: 3, modification: Acetyl (K)
[5] = charge state: 2, modification: Biotin
[6] = charge state: 3, modification: Biotin
[7] = charge state: 2, modification: Butyryl
[8] = charge state: 3, modification: Butyryl
[9] = charge state: 2, modification: Crotonyl
[10] = charge state: 3, modification: Crotonyl
[11] = charge state: 2, modification: Dimethyl (K)
[12] = charge state: 3, modification: Dimethyl (K)
[13] = charge state: 2, modification: Formyl
[14] = charge state: 2, modification: Glutarylation
[15] = charge state: 3, modification: Glutarylation
[16] = charge state: 2, modification: GlyGly (K)
[17] = charge state: 3, modification: GlyGly (K)
[18] = charge state: 2, modification: Malonyl
[19] = charge state: 2, modification: Methyl (K)
[20] = charge state: 3, modification: Methyl (K)
[21] = charge state: 2, modification: Propionyl
[22] = charge state: 2, modification: Succinyl
[23] = charge state: 3, modification: Succinyl
[24] = charge state: 2, modification: Trimethyl (K)
[25] = charge state: 3, modification: Trimethyl (K)
[26] = charge state: 2, modification: hydroxyisobutyryl
[27] = charge state: 3, modification: Propionyl
[28] = charge state: 3, modification: hydroxyisobutyryl

Sequence “LNAIYQNNLTK [_LNAIY(Phospho (Y))QNNLTK_]” has a collision cross section [1] of 390.25 ± 0.67 Å².

With “LPEYPQVDDLLLR [_LPEY(Nitro (Y))PQVDDLLLR_]” the collision cross section [2] was 424.61 ± 1.1 Å².

In the case of “LPTTAASTPDAVDK [_LPT(HexNAc (ST))TAASTPDAVDK_]”, the collision cross section (charge state: 2, modification: HexNAc (ST)) is reported as 413.95 ± 0.62 Å².

Sequence “LQAAYAGDKADDIQK [_LQAAYAGDK(Acetyl (K))ADDIQK_]” has a collision cross section [3] of 429.91 ± 2.1 Å² and a collision cross section [4] of 488.96 ± 0.48 Å².

With “LQAAYAGDKADDIQK [_LQAAYAGDK(Biotin)ADDIQK_]” the collision cross section [5] was 449.09 ± 0.62 Å² and the collision cross section [6] was 511.95 ± 0.34 Å².

Work on “LQAAYAGDKADDIQK [_LQAAYAGDK(Butyryl)ADDIQK_]” yielded a collision cross section [7] of 436.77 ± 0.53 Å² and a collision cross section [8] of 489.7 ± 2.9 Å².

With “LQAAYAGDKADDIQK [_LQAAYAGDK(Crotonyl)ADDIQK_]” the collision cross section [9] was 436.53 ± 0.29 Å² and the collision cross section [10] was 487.02 ± 2.8 Å².

For “LQAAYAGDKADDIQK [_LQAAYAGDK(Dimethyl (K))ADDIQK_]”, the collision cross section [11] was 436.04 ± 1.1 Å² and the collision cross section [12] was 470.88 ± 1.6 Å².

“LQAAYAGDKADDIQK [_LQAAYAGDK(Formyl)ADDIQK_]” gave a collision cross section [13] of 428.24 ± 0.79 Å².

“LQAAYAGDKADDIQK [_LQAAYAGDK(Gluratylation)ADDIQK_]” showed a collision cross section [14] of 440.38 ± 0.95 Å² and a collision cross section [15] of 496.91 ± 1 Å².

Work on “LQAAYAGDKADDIQK [_LQAAYAGDK(GlyGly (K))ADDIQK_]” yielded a collision cross section [16] of 455.93 ± 1.6 Å² and a collision cross section [17] of 505.34 ± 0.35 Å².

Sequence “LQAAYAGDKADDIQK [_LQAAYAGDK(Malonyl)ADDIQK_]” has a collision cross section [18] of 436.07 ± 1.2 Å².

“LQAAYAGDKADDIQK [_LQAAYAGDK(Methyl (K))ADDIQK_]” gave a collision cross section [19] of 430.05 ± 1.4 Å² and a collision cross section [20] of 477.97 ± 2.6 Å².

“LQAAYAGDKADDIQK [_LQAAYAGDK(Propionyl)ADDIQK_]” showed a collision cross section [21] of 432.96 ± 1.1 Å².

“LQAAYAGDKADDIQK [_LQAAYAGDK(Succinyl)ADDIQK_]” gave a collision cross section [22] of 436.68 ± 1.4 Å² and a collision cross section [23] of 489.74 ± 2.1 Å².

For “LQAAYAGDKADDIQK [_LQAAYAGDK(Trimethyl (K))ADDIQK_]”, the collision cross section [24] was 440.52 ± 0.59 Å² and the collision cross section [25] was 477.2 ± 1.8 Å².

Work on “LQAAYAGDKADDIQK [_LQAAYAGDK(hydroxyisobutyryl)ADDIQK_]” yielded a collision cross section [26] of 440.97 ± 0.91 Å².

In the case of “LQDVSGQLSSSKK [_LQDVSGQLSSSK(Acetyl (K))K_]”, the collision cross section [3] is reported as 396.87 ± 1.3 Å² and the collision cross section [4] is reported as 461.64 ± 3.7 Å².

For LQDVSGQLSSSKK [_LQDVSGQLSSSK(Biotin)K_], the collision cross section [5] was 425.22 ± 2.6 Å² and the collision cross section [6] was 506.69 Å².

“LQDVSGQLSSSKK [_LQDVSGQLSSSK(Butyryl)K_]” showed a collision cross section [7] of 401.39 ± 0.74 Å² and a collision cross section [8] of 476.47 ± 3.2 Å².

In the case of “LQDVSGQLSSSKK [_LQDVSGQLSSSK(Crotonyl)K_]”, the collision cross section [9] is reported as 402.23 ± 0.9 Å² and the collision cross section [10] is reported as 469.03 ± 3.7 Å².

With “LQDVSGQLSSSKK [_LQDVSGQLSSSK(Dimethyl (K))K_]” the collision cross section [11] was 407.51 ± 1.1 Å² and the collision cross section [12] was 466.01 ± 2.4 Å².

With LQDVSGQLSSSKK [_LQDVSGQLSSSK(Formyl)K_] the collision cross section [13] was 394.61 ± 0.21 Å².

In the case of “LQDVSGQLSSSKK [_LQDVSGQLSSSK(Gluratylation)K_]”, the collision cross section [14] is reported as 404.29 ± 0.99 Å² and the collision cross section [15] is reported as 482.96 ± 1.3 Å².

“LQDVSGQLSSSKK [_LQDVSGQLSSSK(GlyGly (K))K_]” showed a collision cross section [16] of 438.61 ± 1.4 Å² and a collision cross section [17] of 490.05 ± 4.9 Å².

“LQDVSGQLSSSKK [_LQDVSGQLSSSK(Malonyl)K_]” gave a collision cross section [18] of 397.79 ± 0.61 Å².

“LQDVSGQLSSSKK [_LQDVSGQLSSSK(Methyl (K))K_]” gave a collision cross section [19] of 404.82 ± 1.9 Å² and a collision cross section [20] of 465.49 ± 8.7 Å².

“LQDVSGQLSSSKK [_LQDVSGQLSSSK(Propionyl)K_]” gave a collision cross section [21] of 399.52 ± 0.65 Å² and a collision cross section [27] of 471.63 Å².

Work on “LQDVSGQLSSSKK [_LQDVSGQLSSSK(Succinyl)K_]” yielded a collision cross section [22] of 402.37 ± 0.79 Å² and a collision cross section [23] of 468.7 ± 14 Å².

For “LQDVSGQLSSSKK [_LQDVSGQLSSSK(Trimethyl (K))K_]”, the collision cross section [24] was 417.06 ± 1.1 Å² and the collision cross section [25] was 475.09 ± 1.5 Å².

Sequence “LQDVSGQLSSSKK [_LQDVSGQLSSSK(hydroxyisobutyryl)K_]” has a collision cross section [26] of 404.16 ± 0.3 Å² and a collision cross section [28] of 470.99 ± 5.5 Å².

“LQEKVESAQSEQK [_LQEK(Acetyl (K))VESAQSEQK_]” showed a collision cross section [3] of 412.85 ± 1.8 Å² and a collision cross section [4] of 502.13 ± 0.084 Å².

LQEKVESAQSEQK [_LQEK(Biotin)VESAQSEQK_] showed a collision cross section [5] of 433.03 ± 0.23 Å² and a collision cross section [6] of 526.98 ± 0.34 Å².

Work on “LQEKVESAQSEQK [_LQEK(Butyryl)VESAQSEQK_]” yielded a collision cross section [7] of 419.43 ± 0.77 Å² and a collision cross section [8] of 504.21 ± 1.9 Å².

“LQEKVESAQSEQK [_LQEK(Crotonyl)VESAQSEQK_]” gave a collision cross section [9] of 419.55 ± 0.85 Å² and a collision cross section [10] of 502.91 ± 1.6 Å².

In the case of “LQEKVESAQSEQK [_LQEK(Dimethyl (K))VESAQSEQK_]”, the collision cross section [11] is reported as 412.95 ± 1.6 Å² and the collision cross section [12] is reported as 455.71 ± 2.1 Å².

Sequence LQEKVESAQSEQK [_LQEK(Formyl)VESAQSEQK_] has a collision cross section [13] of 410.52 ± 1.2 Å² and a collision cross section (charge state: 3, modification: Formyl) of 496.47 ± 0.53 Å².

“LQEKVESAQSEQK [_LQEK(Gluratylation)VESAQSEQK_]” showed a collision cross section [14] of 421.97 ± 0.48 Å² and a collision cross section [15] of 507.02 ± 1 Å².

“LQEKVESAQSEQK [_LQEK(GlyGly (K))VESAQSEQK_]” showed a collision cross section [16] of 427.55 ± 1.4 Å² and a collision cross section [17] of 508.34 ± 0.87 Å².

With “LQEKVESAQSEQK [_LQEK(Malonyl)VESAQSEQK_]” the collision cross section [18] was 413.7 ± 1.6 Å² and the collision cross section (charge state: 3, modification: Malonyl) was 504.23 ± 2.2 Å².

With “LQEKVESAQSEQK [_LQEK(Methyl (K))VESAQSEQK_]” the collision cross section [19] was 410.87 ± 2 Å² and the collision cross section [20] was 480.74 ± 20 Å².

“LQEKVESAQSEQK [_LQEK(Propionyl)VESAQSEQK_]” gave a collision cross section [21] of 417.86 ± 1.3 Å² and a collision cross section [27] of 502.35 ± 1.5 Å².

Sequence “LQEKVESAQSEQK [_LQEK(Succinyl)VESAQSEQK_]” has a collision cross section [22] of 417.9 ± 0.86 Å² and a collision cross section [23] of 502.42 ± 0.72 Å².

For “LQEKVESAQSEQK [_LQEK(Trimethyl (K))VESAQSEQK_]”, the collision cross section [24] was 419.24 ± 2.2 Å² and the collision cross section [25] was 470.87 ± 1.8 Å².

Work on “LQEKVESAQSEQK [_LQEK(hydroxyisobutyryl)VESAQSEQK_]” yielded a collision cross section [26] of 422.92 ± 0.52 Å² and a collision cross section [28] of 502.35 ± 2.1 Å².

Work on LQIASDENYK [_LQIASDENY(Nitro (Y))K_] yielded a collision cross section [2] of 364.55 ± 1.2 Å².

For LQIASDENYK [_LQIASDENY(Phospho (Y))K_], the collision cross section [1] was 374.64 ± 0.77 Å².

Work on LQLEIDQKK [_LQLEIDQK(Acetyl (K))K_] yielded a collision cross section [3] of 364.82 ± 0.76 Å².

Work on LQLEIDQKK [_LQLEIDQK(Biotin)K_] yielded a collision cross section [5] of 382.89 ± 0.23 Å².

For LQLEIDQKK [_LQLEIDQK(Butyryl)K_], the collision cross section [7] was 370.32 ± 1.2 Å².

LQLEIDQKK [_LQLEIDQK(Crotonyl)K_] gave a collision cross section [9] of 366.56 Å².

LQLEIDQKK [_LQLEIDQK(Dimethyl (K))K_] gave a collision cross section [11] of 364.14 ± 0.52 Å² and a collision cross section [12] of 427.16 ± 2.1 Å².

LQLEIDQKK [_LQLEIDQK(Formyl)K_] showed a collision cross section [13] of 362.42 ± 1 Å².

LQLEIDQKK [_LQLEIDQK(Gluratylation)K_] showed a collision cross section [14] of 373.2 ± 0.7 Å².

In the case of LQLEIDQKK [_LQLEIDQK(GlyGly (K))K_], the collision cross section [16] is reported as 376.75 ± 0.46 Å² and the collision cross section [17] is reported as 433 ± 2.7 Å².

LQLEIDQKK [_LQLEIDQK(Malonyl)K_] showed a collision cross section [18] of 367.76 ± 0.011 Å².

Work on LQLEIDQKK [_LQLEIDQK(Methyl (K))K_] yielded a collision cross section [19] of 367.47 ± 2.8 Å² and a collision cross section [20] of 429.39 ± 5.2 Å².

With LQLEIDQKK [_LQLEIDQK(Propionyl)K_] the collision cross section [21] was 368.05 ± 0.33 Å².

Sequence LQLEIDQKK [_LQLEIDQK(Succinyl)K_] has a collision cross section [22] of 370.18 ± 1.1 Å².

Sequence LQLEIDQKK [_LQLEIDQK(Trimethyl (K))K_] has a collision cross section [24] of 370.49 ± 1.6 Å² and a collision cross section [25] of 433.51 ± 3.7 Å².

In the case of “LQLEIDQKK [_LQLEIDQK(hydroxyisobutyryl)K_]”, the collision cross section [26] is reported as 371.26 ± 0.27 Å².

Sequence “LQLGTPPPLLAARLVPPR [_LQLGTPPPLLAAR(Citrullination (R))LVPPR_]” has a collision cross section (charge state: 3, modification: Citrullination (R)) of 576.16 ± 0.34 Å².

LQNSYQPTNK [_LQNSY(Nitro (Y))QPTNK_] showed a collision cross section [2] of 362.69 ± 0.94 Å².

With LQNSYQPTNK [_LQNSY(Phospho (Y))QPTNK_] the collision cross section [1] was 366.81 ± 0.064 Å².

With “LRQQLQAK [_LR(Citrullination (R))QQLQAK_]” the collision cross section (charge state: 2, modification: Citrullination (R)) was 337.45 ± 0.28 Å².

LRQQLQAK [_LR(Methyl (R))QQLQAK_] gave a collision cross section (charge state: 2, modification: Methyl (R)) of 356.39 ± 9.6 Å² and a collision cross section (charge state: 3, modification: Methyl (R)) of 413.25 ± 2 Å².
